Laboratory results reported in patent US20190016794A1 (Boehringer Ingelheim, published 2019).
Values joined by “and” are separate entries in the source; they are usually repeats but may differ in a detail not shown here. Equal values may be shown once.

T1: recombinant human IL23 (human, UniProt P29460 23-328)
T1 sequence 1: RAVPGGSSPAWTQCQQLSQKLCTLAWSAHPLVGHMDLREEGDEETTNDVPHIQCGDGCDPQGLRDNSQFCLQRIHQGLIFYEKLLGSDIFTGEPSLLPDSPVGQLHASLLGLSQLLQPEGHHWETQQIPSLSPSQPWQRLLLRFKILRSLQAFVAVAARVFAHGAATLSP
T1 sequence 2: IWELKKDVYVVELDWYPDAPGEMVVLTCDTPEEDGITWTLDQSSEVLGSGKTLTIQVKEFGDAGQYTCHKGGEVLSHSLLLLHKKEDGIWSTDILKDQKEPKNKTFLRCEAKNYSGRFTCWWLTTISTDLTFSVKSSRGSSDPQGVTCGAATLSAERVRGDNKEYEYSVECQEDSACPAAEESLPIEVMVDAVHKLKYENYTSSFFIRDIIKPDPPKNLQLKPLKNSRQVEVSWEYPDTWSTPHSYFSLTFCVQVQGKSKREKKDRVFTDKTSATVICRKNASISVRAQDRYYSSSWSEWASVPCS

T2: recombinant cynomolgus IL23 (cynomolgus)
T2 chain 1: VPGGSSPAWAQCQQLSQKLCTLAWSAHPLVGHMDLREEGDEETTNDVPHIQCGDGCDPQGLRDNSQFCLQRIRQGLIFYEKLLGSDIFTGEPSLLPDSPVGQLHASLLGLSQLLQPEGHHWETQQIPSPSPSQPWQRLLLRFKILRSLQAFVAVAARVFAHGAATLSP
T2 chain 2: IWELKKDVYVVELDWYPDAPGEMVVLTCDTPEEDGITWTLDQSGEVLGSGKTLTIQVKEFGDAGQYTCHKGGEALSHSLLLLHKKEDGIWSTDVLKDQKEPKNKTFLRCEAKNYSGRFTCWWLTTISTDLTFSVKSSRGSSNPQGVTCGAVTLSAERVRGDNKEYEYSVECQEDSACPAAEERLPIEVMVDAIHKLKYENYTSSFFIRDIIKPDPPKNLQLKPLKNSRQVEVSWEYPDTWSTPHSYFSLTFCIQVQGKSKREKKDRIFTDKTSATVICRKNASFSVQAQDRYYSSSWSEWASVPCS

B1: Compound G (bispecific antibody)
chain 1: EIVLTQSPATLSLSPGERATLSCRASQSVYSYLAWYQQKPGQAPRLLIYDASNRATGIPARFSGSGSGTDFTLTISSLEPEDFAVYYCQQRSNWPPFTFGPGTKVDIKGGGSGGGGQVQLVQSGAEVKKPGSSVKVSCKASGYTFTDQTIHWMRQAPGQGLEWIGYIYPRDDSPKYNENFKGKVTITADKSTSTAYMELSSLRSEDTAVYYCAIPDRSGYAWFIYWGQGTLVTVSSLGGGSGASTKGPSVFPLAPSSKSTSGGTAALGCLVKDYFPEPVTVSWNSGALTSGVHTFPAVLQSSGLYSLSSVVTVPSSSLGTQTYICNVNHKPSNTKVDKRVEPKSCDKTHTCPPCPAPEAAGGPSVFLFPPKPKDTLYITREPEVTCVVVDVSHEDPEVKFNWYVDGVEVHNAKTKPREEQYNSTYRVVSVLTVLHQDWLNGKEYKCKVSNKALPAPIEKTISKAKGQPREPQVYTLPPSREEMTKNQVSLTCLVKGFYPSDIAVEWESNGQPENNYKTTPPVLDSDGSFFLYSKLTVDKSRWQQGNVFSCSVMHEALHNHYTQKSLSLSPGK
chain 2: DIQMTQSPSSLSASVGDRVTITCKASRDVAIAVAWYQQKPGKVPKLLIYWASTRHTGVPSRFSGSGSRTDFTLTISSLQPEDVADYFCHQYSSYPFTFGSGTKLEIKGGGSGGGGQVQLVESGGGVVQPGRSLRLSCAASGFIFSSYAMHWVRQAPGNGLEWVAFMSYDGSNKKYADSVKGRFTISRDNSKNTLYLQMNSLRAEDTAVYYCARDRGIAAGGNYYYYGMDVWGQGTTVTVSSLGGGSGRTVAAPSVFIFPPSDEQLKSGTASVVCLLNNFYPREAKVQWKVDNALQSGNSQESVTEQDSKDSTYSLSSTLTLSKADYEKHKVYACEVTHQGLSSPVTKSFNRGEC
B2: Compound P (bispecific antibody)
chain 1: not shown
chain 2: EIVLTQSPATLSLSPGERATLSCRASQSVYSYLAWYQQKPGQAPRLLIYDASNRATGIPARFSGSGSGTDFTLTISSLEPEDFAVYYCQQRSNWPPFTFGPGTKVDIKGGGSGGGGQVQLVQSGAEVKKPGSSVKVSCKASGYTFTDQTIHWMRQAPGQGLEWIGYIYPRDDSPKYNENFKGKVTITADKSTSTAYMELSSLRSEDTAVYYCAIPDRSGYAWFIYWGQGTLVTVSSVEPKSSRTVAAPSVFIFPPSDEQLKSGTASVVCLLNNFYPREAKVQWKVDNALQSGNSQESVTEQDSKDSTYSLSSTLTLSKADYEKHKVYACEVTHQGLSSPVTKSFNRGEC
B3: Compound F (bispecific antibody)
chain 1: DIQMTQSPSSLSASVGDRVTITCKASRDVAIAVAWYQQKPGKVPKLLIYWASTRHTGVPSRFSGSGSRTDFTLTISSLQPEDVADYFCHQYSSYPFTFGSGTKLEIKGGGSGGGGQVQLVESGGGVVQPGRSLRLSCAASGFIFSSYAMHWVRQAPGNGLEWVAFMSYDGSNKKYADSVKGRFTISRDNSKNTLYLQMNSLRAEDTAVYYCARDRGIAAGGNYYYYGMDVWGQGTTVTVSSFNRGESASTKGPSVFPLAPSSKSTSGGTAALGCLVKDYFPEPVTVSWNSGALTSGVHTFPAVLQSSGLYSLSSVVTVPSSSLGTQTYICNVNHKPSNTKVDKRVEPKSCDKTHTCPPCPAPEAAGGPSVFLFPPKPKDTLYITREPEVTCVVVDVSHEDPEVKFNWYVDGVEVHNAKTKPREEQYNSTYRVVSVLTVLHQDWLNGKEYKCKVSNKALPAPIEKTISKAKGQPREPQVYTLPPSREEMTKNQVSLTCLVKGFYPSDIAVEWESNGQPENNYKTTPPVLDSDGSFFLYSKLTVDKSRWQQGNVFSCSVMHEALHNHYTQKSLSLSPGK
chain 2: B2 chain 2
B4: Control Antibody 3 (IL23 monoclonal antibody) (antibody, V domains shown)
VH: QVQLVQSGAEVKKPGSSVKVSCKASGYTFTDQTIHWMRQAPGQGLEWIGYIYPRDDSPKYNENFKGKVTITADKSTSTAYMELSSLRSEDTAVYYCAIPDRSGYAWFIYWGQGTLVTVSS
VL: DIQMTQSPSSLSASVGDRVTITCKASRDVAIAVAWYQQKPGKVPKLLIYWASTRHTGVPSRFSGSGSRTDFTLTISSLQPEDVADYFCHQYSSYPFTFGSGTKLEIK
B5: Control antibody 2 (TNFa monoclonal antibody) (antibody, V domains shown)
VH: QVQLVESGGGVVQPGRSLRLSCAASGFIFSSYAMHWVRQAPGNGLEWVAFMSYDGSNKKYADSVKGRFTISRDNSKNTLYLQMNSLRAEDTAVYYCARDRGIAAGGNYYYYGMDVWGQGTTVTVSS
VL: EIVLTQSPATLSLSPGERATLSCRASQSVYSYLAWYQQKPGQAPRLLIYDASNRATGIPARFSGSGSGTDFTLTISSLEPEDFAVYYCQQRSNWPPFTFGPGTKVDIK
notes: Monoclonal antibody

Legend:
recombinant human IL23 [1] = target: T1, recombinant human IL23; test: cell-based or functional assay
recombinant human IL23 [2] = target: T1, recombinant human IL23; test: cell-based or functional assay; remark: listed apart in the source
human TNF-alpha [3] = target: T3, human TNF-alpha (human, UniProt P01375 77-233); test: cell-based or functional assay
human TNF-alpha [4] = target: T3, human TNF-alpha; test: cell-based or functional assay; remark: listed apart in the source
recombinant human IL23 [5] = target: T1, recombinant human IL23; test: cell-based or functional assay; remark: listed apart in the source
cynomolgus TNF-alpha = cynomolgus TNF-alpha (cynomolgus, UniProt P79337 77-233, limits assumed); test: cell-based or functional assay
human TNF-alpha [6] = target: T3, human TNF-alpha; test: cell-based or functional assay; remark: listed apart in the source
human TNF-alpha [7] = target: T3, human TNF-alpha; test: cell-based or functional assay; remark: listed apart in the source
[8] = target: T2, recombinant cynomolgus IL23; test: cell-based or functional assay
recombinant human IL23 [9] = target: T1, recombinant human IL23; test: cell-based or functional assay; remark: listed apart in the source
recombinant human IL23 [10] = target: T1, recombinant human IL23; test: cell-based or functional assay; remark: listed apart in the source
recombinant human IL23 [11] = target: T1, recombinant human IL23; test: cell-based or functional assay; remark: listed apart in the source
membrane bound TNF-alpha [12] = target: T4, membrane bound TNF-alpha; test: flow cytometry, mTNF-transfected Jurkat cells (geomean)
T4 construct: whole, on cells; also called mTNF; membrane expressed TNF-alpha
Method: (§1) All reagents were prepared in flow cytometry staining buffer (BioLegend). Membrane expressed TNF-alpha transfected cell lines (Jurkat and CHO) and parental cell lines were harvested from tissue culture vessels, washed, counted and resuspended to 1×10̂6 cells/ml in flow cytometry staining buffer. One hundred microliters of the cell suspension was added to 96 well microtiter plates and placed on ice. Titrations of test compounds were prepared and 50 uL was added to the cells. After sixty minute incubation on ice, the cell+test compounds were washed and 50 uL of a secondary antibody (Jackson ImmunoResearch) was added. The samples were incubated in the dark, at 4 C, for 60 minutes, followed by washes. After a final wash the cells were resuspended in 60 uL of fixative (BD Bioscience). Median fluorescence was determined for each sample in a flow cytometer and plotted versus the concentration of the test sample. EC₅₀ values were calculated using the 4 Parameter Logistic enabled by the Excel add-in XLfit (Activity Base software, ID Business Solutions, Ltd.).

membrane bound TNF-alpha [13] = target: T4, membrane bound TNF-alpha; test: flow cytometry, mTNF-transfected CHO cells (geomean)
Method: as §1

cynomolgus TNF-alpha, sequence (P79337 77-233 limits assumed): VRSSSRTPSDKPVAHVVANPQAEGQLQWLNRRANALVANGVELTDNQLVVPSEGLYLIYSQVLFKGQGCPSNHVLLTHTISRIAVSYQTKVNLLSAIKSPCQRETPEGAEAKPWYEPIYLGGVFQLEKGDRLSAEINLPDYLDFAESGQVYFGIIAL
T3 sequence (P01375 77-233 limits assumed): as the sequence (P79337 77-233 limits assumed) above, with V37L, T44R, N72T, L138R counted along it
T4 sequence (P01375 whole entry): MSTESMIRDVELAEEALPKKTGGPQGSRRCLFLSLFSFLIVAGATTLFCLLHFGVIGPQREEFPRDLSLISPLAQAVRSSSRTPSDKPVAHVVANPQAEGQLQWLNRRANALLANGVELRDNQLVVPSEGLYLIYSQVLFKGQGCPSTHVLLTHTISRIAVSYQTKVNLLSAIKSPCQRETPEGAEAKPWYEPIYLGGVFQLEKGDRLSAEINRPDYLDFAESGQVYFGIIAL

Binder	IC50, IL-23-dependent STAT3 activation (DB-STAT3Luc10 luciferase) (recombinant human IL23 [1])	GEOMEAN IC50, IL-23-dependent STAT3 activation (luciferase) (recombinant human IL23 [2]) [nM]	GEOMEAN IC90, IL-23-dependent STAT3 activation (luciferase) (recombinant human IL23 [2]) [nM]	TNF-IL8 Whole Blood IC50 (human TNF-alpha [3]) [nM]	TNF-IL8 Whole Blood IC90 (human TNF-alpha [3]) [nM]	Dual Phospho Jurkat-pNf-Kb IC50 (human TNF-alpha [4]) [pM]	Dual Phospho Jurkat-pNf-Kb IC90 (human TNF-alpha [4]) [pM]	Dual Phospho DB-pSTAT3 IC50 (recombinant human IL23 [5]) [pM]	Dual Phospho DB-pSTAT3 IC90 (recombinant human IL23 [5]) [pM]	HeLa IL8 Cyno-TNF IC50 (cynomolgus TNF-alpha) [nM]	HeLa IL8 Cyno-TNF IC90 (cynomolgus TNF-alpha) [nM]	HeLa IL8 Hi-Hu-TNF IC50 (human TNF-alpha [6]) [nM]	CynoIL23 MSA IC50 [8] [nM]	CynoIL23 MSA IC90 [8] [nM]	huIL23 MSA IC50 (recombinant human IL23 [9]) [nM]	huIL23 MSA IC90 (recombinant human IL23 [9]) [nM]	hIL23 pSTAT3 DB assay IC50 (recombinant human IL23 [10]) [pM]	hIL23 pSTAT3 DB assay IC90 (recombinant human IL23 [10]) [pM]	IL23A pSTAT3 (MG) IC50 (recombinant human IL23 [11]) [pM]	IL23A pSTAT3 (MG) IC90 (recombinant human IL23 [11]) [pM]	also measured
B1	0.22 nM	0.203	0.831	–	–	–	–	–	–	–	–	–	–	–	–	–	–	–	–	–	IC90, IL-23-dependent STAT3 activation (DB-STAT3Luc10 luciferase) (recombinant human IL23 [1]): 1.15 nM; First test IC50, IL-23-dependent STAT3 activation (luciferase) (recombinant human IL23 [2]): 0.187 nM
B2	–	–	–	0.29	0.42	290	340	340	630	0.21	0.81	0.41	0.097	1.5	0.2	1.4	300	620	69	480	HeLa IL8 Hi-Hu-TNF IC90 (human TNF-alpha [6]): 0.81 nM; HeLa IL8 Lo-Hu-TNF IC50 (human TNF-alpha [6]): 0.0092 nM; HeLa IL8 Lo-Hu-TNF IC90 (human TNF-alpha [6]): 0.036 nM; L929 TNF Cytotox IC50 (human TNF-alpha [7]): 0.0034 nM; L929 TNF Cytotox IC90 (human TNF-alpha [7]): 0.014 nM
B3	–	–	–	0.31	0.45	280	760	360	980	0.19	0.74	0.35	0.069	1.5	0.17	2.3	260	600	90	650	HeLa IL8 Hi-Hu-TNF IC90 (human TNF-alpha [6]): 0.66 nM; HeLa IL8 Lo-Hu-TNF IC50 (human TNF-alpha [6]): 0.0079 nM; HeLa IL8 Lo-Hu-TNF IC90 (human TNF-alpha [6]): 0.039 nM; L929 TNF Cytotox IC50 (human TNF-alpha [7]): 0.0025 nM; L929 TNF Cytotox IC90 (human TNF-alpha [7]): 0.01 nM
B4	0.0965 nM and 0.104 nM and 0.0803 nM	0.0931	0.191	–	–	–	–	89	230	–	–	–	0.017	0.24	0.053	0.35	160	310	35	140	–
B5	–	–	–	–	–	–	–	–	–	0.28	1.2	–	–	–	–	–	–	–	–	–	EC50 (membrane bound TNF-alpha [12]): 0.23 nM; EC50 (membrane bound TNF-alpha [13]): 0.31 nM
